Source: US20100092464A1 (Novartis, published 2010)
Where two headings read alike, the source gives them in different places.

What was measured:
[1] = target: T1, human macrophage colony stimulating factor (M-CSF) (human, UniProt P09603 33-190, limits assumed); assay: cell-based or functional assay
T1 sequence: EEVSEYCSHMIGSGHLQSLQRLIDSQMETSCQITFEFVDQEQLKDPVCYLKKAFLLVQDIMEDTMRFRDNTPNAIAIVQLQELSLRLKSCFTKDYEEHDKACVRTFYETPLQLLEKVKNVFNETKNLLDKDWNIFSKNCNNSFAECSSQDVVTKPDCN

[2] = target: T1, human macrophage colony stimulating …; assay: cell-based or functional assay; remark: listed apart in the source
[3] = target: T1, human macrophage colony stimulating …; assay: cell-based or functional assay; remark: listed apart in the source
[4] = target: T1, human macrophage colony stimulating …; assay: M-CSF and antibody mixed at equal molar ratios; size exclusion chromatography or light scattering
From the text: The antigen-antibody complexes that the various Human Engineered™ RX1 antibodies formed with MCSF were studied by combining M-CSF and antibody in buffer at equal molar ratios, followed by analysis of the size of the antigen-antibody complex using size exclusion chromatography or light scattering. […] The heRX1-9.G2 or 1-10.G2 antibodies appeared to form 2:1 or 2:2 complexes with MCSF of about 400 kDa. The heRX1-1.G2 appeared to form large lattice aggregates with MCSF of greater than 2×10⁶ Da. The IgG1 and IgG4 constructs formed small complexes similar to that of murine parent RX1.

[5] = target: T1, human macrophage colony stimulating …; assay: cell-based or functional assay; remark: listed apart in the source
[6] = target: T1, human macrophage colony stimulating …; assay: cell-based or functional assay; remark: listed apart in the source

Binder | IC50 Fold Loss (M-NFS-60 cell proliferation) [1] [fold] | IC50 (read off the curve) [2] [ng/mL] | IC50 (read off the curve) [3] [ng/mL] | other results
Human Engineered RX1 antibody heRX1-1.G2 (antibody, V domains shown) VH: DVQLQESGPGLVKPSQTLSLTCTVTDYSITSDYAWNWIRQFPGKKLEWMGYISYSGSTSYNPSLKSRITISRDTSKNQFSLQLNSVTAADTATYYCASFDYAHAMDYWGQGTTVTVSS VL: EIVLTQSPGTLSVSPGERVTFSCRASQSIGTSIHWYQQKTGQSPRLLIKYASERISGIPDRFSGSGSGTDFTLTISRVESEDFADYYCQQINSWPTTFGQGTKLEIKR | 2.8 | ~30 | ~20 | 
Human Engineered RX1 antibody heRX1-1.G1 (antibody, V domains shown) VH: DVQLQESGPGLVKPSQTLSLTCTVTDYSITSDYAWNWIRQFPGKKLEWMGYISYSGSTSYNPSLKSRITISRDTSKNQFSLQLNSVTAADTATYYCASFDYAHAMDYWGQGTTVTVSS VL: EIVLTQSPGTLSVSPGERVTFSCRASQSIGTSIHWYQQKTGQSPRLLIKYASERISGIPDRFSGSGSGTDFTLTISRVESEDFADYYCQQINSWPTTFGQGTKLEIKR |  | ~20 | ~10 | 
Human Engineered RX1 antibody heRX1-2.G2 (antibody, V domains shown) VH: QVQLQESGPGLVKPSQTLSLTCTVSDYSITSDYAWNWIRQFPGKGLEWMGYISYSGSTSYNPSLKSRITISRDTSKNQFSLQLNSVTAADTAVYYCASFDYAHAMDYWGQGTTVTVSS VL: EIVLTQSPGTLSVSPGERVTFSCRASQSIGTSIHWYQQKTGQSPRLLIKYASERISGIPDRFSGSGSGTDFTLTISRVESEDFADYYCQQINSWPTTFGQGTKLEIKR | 3.1 |  |  | 
Human Engineered RX1 antibody heRX1-3.G2 (antibody, V domains shown) VH: DVQLQESGPGLVKPSQTLSLTCTVTDYSITSDYAWNWIRQFPGKKLEWMGYISYSGSTSYNPSLKSRITISRDTSKNQFSLQLNSVTAADTATYYCASFDYAHAMDYWGQGTTVTVSS VL: EIVLTQSPGTLSVSPGERVTFSCRASQSIGTSIHWYQQKTGQAPRLLIKYASERATGIPDRFSGSGSGTDFTLTISRVESEDFADYYCQQINSWPTTFGQGTKLEIKR | 5.3 |  |  | 
Human Engineered RX1 antibody heRX1-4.G2 (antibody, V domains shown) VH: QVQLQESGPGLVKPSQTLSLTCTVSDYSITSDYAWNWIRQFPGKGLEWMGYISYSGSTSYNPSLKSRITISRDTSKNQFSLQLNSVTAADTAVYYCASFDYAHAMDYWGQGTTVTVSS VL: EIVLTQSPGTLSVSPGERVTFSCRASQSIGTSIHWYQQKTGQAPRLLIKYASERATGIPDRFSGSGSGTDFTLTISRVESEDFADYYCQQINSWPTTFGQGTKLEIKR | 4.6 |  |  | 
Human Engineered RX1 antibody heRX1-5.G2 (antibody, V domains shown) VH: DVQLQESGPGLVKPSQTLSLTCTVTDYSITSDYAWNWIRQFPGKKLEWMGYISYSGSTSYNPSLKSRITISRDTSKNQFSLQLNSVTAADTATYYCASFDYAHAMDYWGQGTTVTVSS VL: EIVLTQSPGTLSVSPGERVTFSCRASQSIGTSIHWYQQKTGQSPRLLIKYASESISGIPDRFSGSGSGTDFTLTISRVESEDFADYYCQQINSWPTTFGQGTKLEIKR | 6.5 |  |  | 
Human Engineered RX1 antibody heRX1-7.G2 (antibody, V domains shown) VH: DVQLQESGPGLVKPSQTLSLTCTVTDYSITSDYAWNWIRQFPGKKLEWMGYISYSGSTSYNPSLKSRITISRDTSKNQFSLQLNSVTAADTATYYCASFDYAHAMDYWGQGTTVTVSS VL: EIVLTQSPGTLSVSPGERVTFSCRASQSIGTSIHWYQQKTGQAPRLLIKYASESISGIPDRFSGSGSGTDFTLTISRVESEDFADYYCQQINSWPTTFGQGTKLEIKR | 6.1 |  |  | 
Human Engineered RX1 antibody heRX1-8.G2 (antibody, V domains shown) VH: QVQLQESGPGLVKPSQTLSLTCTVSDYSITSDYAWNWIRQFPGKGLEWMGYISYSGSTSYNPSLKSRITISRDTSKNQFSLQLNSVTAADTAVYYCASFDYAHAMDYWGQGTTVTVSS VL: EIVLTQSPGTLSVSPGERVTFSCRASQSIGTSIHWYQQKTGQAPRLLIKYASESISGIPDRFSGSGSGTDFTLTISRVESEDFADYYCQQINSWPTTFGQGTKLEIKR | 5.9 |  |  | 
Human Engineered RX1 antibody heRX1-10.G2 (antibody, V domains shown, Human Gamma-2 / Kappa constant regions) VH: QVQLQESGPGLVKPSQTLSLTCTVSDYSITSDYAWNWIRQFPGKGLEWMGYISYSGSTSYNPSLKSRITISRDTSKNQFSLQLNSVTAADTAVYYCASFDYAHAMDYWGQGTTVTVSS VL: DIVLTQSPAFLSVTPGEKVTFTCQASQSIGTSIHWYQQKTDQAPKLLIKYASESISGIPSRFSGSGSGTDFTLTISSVEAEDAADYYCQQINSWPTTFGGGTKLEIKR | 2.2 |  |  | size of antigen-antibody complex [4]: ~400 kDa
Human Engineered RX1 antibody heRX1-9.G2 (antibody, V domains shown, Human Gamma-2 / Kappa constant regions) VH: DVQLQESGPGLVKPSQTLSLTCTVTDYSITSDYAWNWIRQFPGKKLEWMGYISYSGSTSYNPSLKSRITISRDTSKNQFSLQLNSVTAADTATYYCASFDYAHAMDYWGQGTTVTVSS VL: DIVLTQSPAFLSVTPGEKVTFTCQASQSIGTSIHWYQQKTDQAPKLLIKYASESISGIPSRFSGSGSGTDFTLTISSVEAEDAADYYCQQINSWPTTFGGGTKLEIKR | 3.6 |  |  | size of antigen-antibody complex [4]: ~400 kDa
M-CSF-specific murine monoclonal antibody RX1 (antibody, V domains shown, Hybridoma-derived and recombinant murine RX1 are written as one molecule; also called Murine RX1; rRX1(mouse)) VH: DVQLQESGPGLVKPSQSLSLTCTVTDYSITSDYAWNWIRQFPGNKLEWMGYISYSGSTSYNPSLKSRISITRDTSKNQFFLQLNSVTTEDTATYYCASFDYAHAMDYWGQGTSVTVSS VL: not shown |  | ~20 | ~10 | EC50 (M-CSF neutralisation) [5]: 2 ng/mL; IC50 (read off the curve) [6]: ~0.02 µg/mL; size of antigen-antibody complex [4]: ~200 kDa
Fab fragment of recombinant murine RX1 (Fab, V domains shown) VH: DVQLQESGPGLVKPSQSLSLTCTVTDYSITSDYAWNWIRQFPGNKLEWMGYISYSGSTSYNPSLKSRISITRDTSKNQFFLQLNSVTTEDTATYYCASFDYAHAMDYWGQGTSVTVSS VL: not shown |  |  |  | IC50 (read off the curve) [6]: ~2 µg/mL
Human Engineered RX1 antibody heRX1-1.G4 (antibody, V domains shown) VH: DVQLQESGPGLVKPSQTLSLTCTVTDYSITSDYAWNWIRQFPGKKLEWMGYISYSGSTSYNPSLKSRITISRDTSKNQFSLQLNSVTAADTATYYCASFDYAHAMDYWGQGTTVTVSS VL: EIVLTQSPGTLSVSPGERVTFSCRASQSIGTSIHWYQQKTGQSPRLLIKYASERISGIPDRFSGSGSGTDFTLTISRVESEDFADYYCQQINSWPTTFGQGTKLEIKR |  | ~20 | ~10 | 
